Data reported in PMC11810782.

Target: GFP–TGN46 (UniProt O43493)
Assay: single-molecule GFP step-photobleaching by TIRF (NativeNanoBleach); ChloroSMA60-extracted total membrane of cells expressing GFP–TGN46 passed over glass slides with streptavidin and biotinylated GFP nanobody; discs captured and GFP bleaching steps counted; 1,000–1,500 particles for each biological replicate, corrected for GFP maturation efficiency

GFP–TGN46, O43493 22-437 (natural protein; other documents disagree on this pair), sequence (O43493 22-437): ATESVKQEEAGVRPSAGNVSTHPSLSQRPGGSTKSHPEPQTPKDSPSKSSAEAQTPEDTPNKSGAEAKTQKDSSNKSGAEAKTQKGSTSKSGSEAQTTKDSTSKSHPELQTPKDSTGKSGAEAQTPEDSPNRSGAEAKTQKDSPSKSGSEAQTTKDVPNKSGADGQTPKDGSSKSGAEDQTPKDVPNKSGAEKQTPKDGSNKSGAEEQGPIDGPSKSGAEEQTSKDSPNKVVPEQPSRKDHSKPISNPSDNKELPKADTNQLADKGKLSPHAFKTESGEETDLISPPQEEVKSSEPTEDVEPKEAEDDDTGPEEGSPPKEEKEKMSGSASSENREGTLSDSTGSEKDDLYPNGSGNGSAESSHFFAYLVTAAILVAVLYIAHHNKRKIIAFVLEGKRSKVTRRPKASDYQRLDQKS

stoichiometry N: 1 to 4
Substance: GFP–TGN46, O43493 22-437 (natural protein; other documents disagree on this pair)
